Measurements: PMC12485133, “An active allosteric mechanism in ASAP1-mediated Arf1 GTP hydrolysis redefines PH domain function” (Nature Communications, 2025)
Values belong to the binder of their own block, whether it stands above or below them.

Experiments:
[1] = biological target: T1, N-myristoylated human Arf1 bound to GTPγS, anchored on nanodiscs (myrArf1·GTPγS) (human, UniProt P84077 1-181, N-terminal myristoyl); assay: cell-based or functional assay
[2] = biological target: T1, N-myristoylated human Arf1 bound to …; assay: not stated; binding of PH variants and Arf variants compared with wild type (Fig. SI8 and Table SI1); the method is not given; conditions: both partners purified
[3] = biological target: T2, myrArf1 Glu54Ala (human, UniProt P84077 1-181, Glu54Ala, N-terminal myristoyl); assay: cell-based or functional assay
T2 sequence (P84077 whole entry E54A): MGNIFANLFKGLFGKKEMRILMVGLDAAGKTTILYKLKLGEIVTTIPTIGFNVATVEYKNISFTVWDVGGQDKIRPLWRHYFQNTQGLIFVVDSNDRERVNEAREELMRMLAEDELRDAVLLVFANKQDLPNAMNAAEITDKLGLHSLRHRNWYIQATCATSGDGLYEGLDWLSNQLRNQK

[4] = biological target: T2, myrArf1 Glu54Ala; assay: not stated; binding of PH variants and Arf variants compared with wild type (Fig. SI8 and Table SI1); the method is not given; conditions: both partners purified
[5] = biological target: T3, MTSL-tagged myrArf1 with Lys73 replaced by Cys (Cys159 mutated to Ala), GTPγS, on nanodiscs (human, UniProt P84077 1-181, Cys159 mutated to Ala | Lys73 replaced with Cys, N-terminal myristoyl; MTSL nitroxide spin label on Cys73 via a disulfide bond); assay: intermolecular PRE NMR; 60 μM protiated MTSL-labelled myrArf1 variants on nanodiscs, 50 μM methyl-labelled ASAP1 PH, 25 °C; paramagnetic against ascorbate-reduced sample; conditions: both partners purified
T3 construct: human Arf1, Uniprot P84077, mono-cysteine variant; also called spin-labeled myrArf1 variant (Lys73 to Cys); source: E. coli BL21 Star (DE3), co-expressed with yeast NMT, purified; spin-labelled on nanodiscs
T3 sequence (P84077 other isoform, or with tags, fused parts or gaps with the stated changes): as the sequence (P84077 whole entry E54A) above, with A54E, K73C, C159A counted along it

[6] = biological target: T4, MTSL-tagged myrArf1 K38C (Cys159 mutated to Ala), GTPγS, on nanodiscs (human, UniProt P84077 1-181, Cys159 mutated to Ala | K38C, N-terminal myristoyl; MTSL nitroxide spin label on Cys38 via a disulfide bond); assay: as above; conditions: both partners purified
T4 construct: human Arf1, Uniprot P84077, mono-cysteine variant; source: E. coli BL21 Star (DE3), co-expressed with yeast NMT, purified; spin-labelled on nanodiscs
T4 sequence (P84077 other isoform, or with tags, fused parts or gaps with the stated changes): as the sequence (P84077 whole entry E54A) above, with K38C, A54E, C159A counted along it

[7] = biological target: T5, ASAP1 ZA domain (Arf GAP domain and ankyrin repeats), residues 447-724 of ASAP1 (UniProt Q9QWY8 447-724); assay: intermolecular PRE NMR; Cys159-MTSL myrArf1 (non-hydrolysable GTP analog), alone or in complex with wt PH, on nanodiscs; 100 μM Arf or Arf:PH and 100 μM isotopically labeled ZA; conditions: both partners purified
T5 construct: Mouse is stated only for the PH domain constructs; the same residue numbers are used; Isotopically labelled in the PRE experiment; also called ^ΔPHZA; isolated ZA domain
T5 sequence (looked up): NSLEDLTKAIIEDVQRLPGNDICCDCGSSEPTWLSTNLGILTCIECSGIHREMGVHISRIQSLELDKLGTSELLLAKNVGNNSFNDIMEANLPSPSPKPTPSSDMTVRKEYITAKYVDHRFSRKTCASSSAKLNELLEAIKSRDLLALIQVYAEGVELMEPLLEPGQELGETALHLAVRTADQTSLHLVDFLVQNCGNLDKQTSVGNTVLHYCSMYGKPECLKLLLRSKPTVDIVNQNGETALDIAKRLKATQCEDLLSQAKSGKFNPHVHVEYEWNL

T1 sequence (P84077 whole entry): as the sequence (P84077 whole entry E54A) above, with A54E counted along it

fold decrease in GAP activity compared with PH [1]: 100 fold
fold weaker binding than wt PH [2]: 2 fold
B1: ΔN14 ASAP1 PH domain, [339-451]ASAP1 (domain or fragment, mouse, UniProt Q9QWY8 339-451, looked up)
chain: GSEKKGFLLKKSDGIRKVWQRRKCAVKNGILTISHATSNRQPAKLNLLTCQVKPNAEDKKSFDLISHNRTYHFQAEDEQDYIAWISVLTNSKEEALTMAFRGEQSTGENSLED
notes: mouse ASAP1, PH domain with shortened N-terminal extension, residues 339-451; tied by counting 14 residues from 325; also called ^ΔN14PH; source: E. coli BL21 Star (DE3) or BL21 (DE3), purified (HiTrap SP, SEC)

fold decrease in GAP activity on Arf1 Glu54Ala compared with wild type (C50 of PZA, Fig. 7C) [3]: 70 fold
fold reduction of binding against wild type [4]: 2 fold
binding result [5]: binds
binding result [6]: binds
B2: wild-type ASAP1 PH domain, [325-451]ASAP1 (domain or fragment, mouse, UniProt Q9QWY8 325-451, looked up)
chain: GGYSMHQLQGNKEYGSEKKGFLLKKSDGIRKVWQRRKCAVKNGILTISHATSNRQPAKLNLLTCQVKPNAEDKKSFDLISHNRTYHFQAEDEQDYIAWISVLTNSKEEALTMAFRGEQSTGENSLED
notes: mouse ASAP1, PH domain with its N-terminal extension, residues 325-451; also called wt PH

Kd [7]: 100 to 1000 µM
B3: Cys159-MTSL tagged myrArf1 bound to a non-hydrolysable GTP analog, on nanodiscs (natural protein)
chain: not shown
modifications: N-terminal myristoyl; MTSL nitroxide spin label on Cys159
notes: human Arf1, Uniprot P84077, native Cys159 spin-labelled; source: E. coli BL21 Star (DE3), co-expressed with yeast NMT, purified; spin-labelled on nanodiscs
